Measured values from patent US20260207700A1, “MEDICAL PRODUCTS CONTAINING AN AQUEOUS FORMULATION OF A PEPTIDE” (LYTIX BIOPHARMA AS, priority 2022, published 2026).
Non-standard residues stand in square brackets, D forms with d. No end group written: not given here. Dip = N[C@H](C(=O)O)C(c1ccccc1)c1ccccc1

Columns and labels:
[1] = 20-30° C., protected from light; cited from earlier work
[2] = Osmolality of LTX-315 drug product on storage (Ph. Eur. 2.2.35), Example 1.1; assay type: physicochemical; details: 20 mg/mL in WFI
Procedure: (§1) • LTX-315=acetate salt of peptide with sequence K-K-W-W-K-K-W-Dip-K-NH2 20 mg/mL LTX-315 drug product was prepared by dissolving LTX-315 powder in WFI and filtered through a 0.22 μm sterile filter. 1 ml of the drug product was then filled into vials and sealed. The WFI complied to the Ph. Eur monograph 0169 for WFI. All product contact vials, glassware and peripherals were sterilised by depyrogenation in a hot air oven at 250° C. for 120 minutes after twice rinsing with WFI. Product contact tubing, stoppers and over-seals were twice rinsed with WFI then sterilised by autoclaving for >15 minutes at 121° C. then dried overnight in a drying oven. The vials were stored as set out in Table 1 below and analysed according to the listed parameters. Appearance was tested visually according to Ph.Eur 2.9.20 and osmolality according to Ph. Eur. 2.2.35. pH was tested according to Ph. Eur. 2.2.3. Colour and clarity were tested according to Ph. Eur 2.2.2 and Ph. Eur 2.2.1, respectively.

[3] = Appearance of LTX-315 drug product in sealed vials on storage (visual, Ph.Eur 2.9.20), Example 1.1; assay type: physicochemical
Procedure: as §1

[4] = Purity/related substances after storage, HPLC, Example 1.3; assay type: physicochemical; details: 20 mg/mL in WFI
Procedure: (§2) Reversed phase HPLC, using a trifluoracetic acid (TFA) system and UV detection at 220 nm, was used to determine the amount of LTX-315 after storage of the vials in accordance with the storage conditions set out in Table 2.
(§3) The column used was an RP C18, e.g. Waters Sunfire, 3.5 μm, 4.6×150 mm. The LTX-315 concentration in the test sample solution was 0.5 mg/ml and the injection volume 10 μl. The gradient profile used is set out below and the flow rate was 1.2 mL/min.
(§4) Drug product was prepared and stored as described in Example 1.1.
HPLC analysis was performed as described in Example 1.2 to determine the concentration of LTX-315 and the amount of related substances, i.e. substances formed due to and thus related to the degradation of LTX-315 in the drug product.

[5] = pH of LTX-315 drug product on storage (Ph. Eur. 2.2.3), Example 1.1; assay type: physicochemical; details: 20 mg/mL in WFI
Procedure: as §1

[6] = LTX-315 concentration after storage, reversed phase HPLC UV 220 nm, Example 1.2; assay type: physicochemical; details: for LTX-315 concentration, Vial 1 / LTX-315 concentration, Vial 2 / Mean content / Rec./T = 0 / Rec./theory (percentage of theoretical 20 mg/mL): 20 mg/mL in WFI
Procedure: as §4, §2, §3

C[C@@H](O)[C@@H]1NC(=O)[C@H](CCCCN)NC(=O)[C@@H](Cc2c[nH]c3ccccc23)NC(=O)[C@H](Cc2ccccc2)NC(=O)[C@@H](NC(=O)[C@H](N)Cc2ccccc2)CSSC[C@@H](C(=O)N[C@H](CO)[C@@H](C)O)NC1=O [octreotide]
Permitted storage time of liquid product [1]: up to 14 days

K-K-W-W-K-K-W-Dip-K-NH2 (KKWWKKW[Dip]K-NH2) [LTX-315]
Osmolality ([2]; 2-8° C., T = 6 months): 133 mOsmkg^−1 | Osmolality ([2]; 2-8° C., T = 12 months): 133 mOsmkg^−1 | Osmolality ([2]; 2-8° C., T = 24 months): 132 mOsmkg^−1 | Osmolality ([2]; 25° C./60% RH, T = 6 months): 133 mOsmkg^−1 | Osmolality ([2]; Initial (T = 0)): 132 mOsmkg^−1 | Change in appearance, osmolality, pH, colour and clarity ([3]; 6 months at 25° C. with 60% RH in the dark): no change | Change in appearance, osmolality, pH, colour and clarity ([3]; 24 months in the dark at 2-8° C.): no change | Total related substances (sum of related substances >0.05%) ([4]; 2-8° C., 1 M): 1.31 area % | Total related substances (sum of related substances >0.05%) ([4]; 2-8° C., 3 M): 1.32 area % | Total related substances (sum of related substances >0.05%) ([4]; 2-8° C., 6 M): 0.98 area % | Total related substances (sum of related substances >0.05%) ([4]; 2-8° C., 9 M): 1.54 area % | Total related substances (sum of related substances >0.05%) ([4]; 2-8° C., 12 M): 1.34 area % | Total related substances (sum of related substances >0.05%) ([4]; 2-8° C., 18 M): 1.37 area % | Total related substances (sum of related substances >0.05%) ([4]; 2-8° C., 24 M): 1.64 area % | Total related substances (sum of related substances >0.05%) ([4]; 2-8° C., Initial (T = 0)): 0.88 area % | Total related substances (sum of related substances >0.05%) ([4]; 25° C./60% RH, 1 M): 1.55 area % | Total related substances (sum of related substances >0.05%) ([4]; 25° C./60% RH, 3 M): 1.97 area % | Total related substances (sum of related substances >0.05%) ([4]; 25° C./60% RH, 6 M): 2.31 area % | Total related substances (sum of related substances >0.05%) ([4]; 25° C./60% RH, Initial (T = 0)): 0.88 area % | pH ([5]; 2-8° C., T = 3 months): 6.2 | pH ([5]; 2-8° C., T = 6 months): 6.0 | pH ([5]; 2-8° C., T = 12 months): 6.1 | pH ([5]; 2-8° C., T = 24 months): 6.1 | pH ([5]; 25° C./60% RH, T = 3 months): 6.2 | pH ([5]; 25° C./60% RH, T = 6 months): 6.1 | pH ([5]; Initial (T = 0)): 6.1 | LTX-315 concentration, Vial 1 ([6]; 2-8° C., T = 1 month): 20.548 mg/mL | LTX-315 concentration, Vial 2 ([6]; 2-8° C., T = 1 month): 19.916 mg/mL | Mean content ([6]; 2-8° C., T = 1 month): 20.2 mg/mL | Rec./T = 0 ([6]; 2-8° C., T = 1 month): 96.3% | Rec./theory (percentage of theoretical 20 mg/mL) ([6]; 2-8° C., T = 1 month): 101.2% | LTX-315 concentration, Vial 1 ([6]; 2-8° C., T = 3 months): 21.241 mg/mL | LTX-315 concentration, Vial 2 ([6]; 2-8° C., T = 3 months): 21.276 mg/mL | Mean content ([6]; 2-8° C., T = 3 months): 21.2 mg/mL | Rec./T = 0 ([6]; 2-8° C., T = 3 months): 101.1% | Rec./theory (percentage of theoretical 20 mg/mL) ([6]; 2-8° C., T = 3 months): 106.3% | LTX-315 concentration, Vial 1 ([6]; 2-8° C., T = 6 months): 20.979 mg/mL | LTX-315 concentration, Vial 2 ([6]; 2-8° C., T = 6 months): 21.027 mg/mL | Mean content ([6]; 2-8° C., T = 6 months): 21.0 mg/mL | Rec./T = 0 ([6]; 2-8° C., T = 6 months): 99.9% | Rec./theory (percentage of theoretical 20 mg/mL) ([6]; 2-8° C., T = 6 months): 105.0% | LTX-315 concentration, Vial 1 ([6]; 2-8° C., T = 9 months): 20.311 mg/mL | LTX-315 concentration, Vial 2 ([6]; 2-8° C., T = 9 months): 20.631 mg/mL | Mean content ([6]; 2-8° C., T = 9 months): 20.4 mg/mL | Rec./T = 0 ([6]; 2-8° C., T = 9 months): 97.4% | Rec./theory (percentage of theoretical 20 mg/mL) ([6]; 2-8° C., T = 9 months): 102.4% | LTX-315 concentration, Vial 1 ([6]; 2-8° C., T = 12 months): 20.895 mg/mL | LTX-315 concentration, Vial 2 ([6]; 2-8° C., T = 12 months): 20.631 mg/mL | Mean content ([6]; 2-8° C., T = 12 months): 20.7 mg/mL | Rec./T = 0 ([6]; 2-8° C., T = 12 months): 98.8% | Rec./theory (percentage of theoretical 20 mg/mL) ([6]; 2-8° C., T = 12 months): 103.8% | LTX-315 concentration, Vial 1 ([6]; 2-8° C., T = 18 months): 19.204 mg/mL | LTX-315 concentration, Vial 2 ([6]; 2-8° C., T = 18 months): 19.990 mg/mL | Mean content ([6]; 2-8° C., T = 18 months): 19.6 mg/mL | Rec./T = 0 ([6]; 2-8° C., T = 18 months): 93.2% | Rec./theory (percentage of theoretical 20 mg/mL) ([6]; 2-8° C., T = 18 months): 98.0% | LTX-315 concentration, Vial 1 ([6]; 2-8° C., T = 24 months): 20.150 mg/mL | LTX-315 concentration, Vial 2 ([6]; 2-8° C., T = 24 months): 19.669 mg/mL | Mean content ([6]; 2-8° C., T = 24 months): 19.9 mg/mL | Rec./T = 0 ([6]; 2-8° C., T = 24 months): 94.7% | Rec./theory (percentage of theoretical 20 mg/mL) ([6]; 2-8° C., T = 24 months): 99.5% | LTX-315 concentration, Vial 1 ([6]; 25° C./60% RH, T = 1 month): 20.269 mg/mL | LTX-315 concentration, Vial 2 ([6]; 25° C./60% RH, T = 1 month): 20.194 mg/mL | Mean content ([6]; 25° C./60% RH, T = 1 month): 20.2 mg/mL | Rec./T = 0 ([6]; 25° C./60% RH, T = 1 month): 96.2% | Rec./theory (percentage of theoretical 20 mg/mL) ([6]; 25° C./60% RH, T = 1 month): 101.2% | LTX-315 concentration, Vial 1 ([6]; 25° C./60% RH, T = 3 months): 20.897 mg/mL | LTX-315 concentration, Vial 2 ([6]; 25° C./60% RH, T = 3 months): 20.222 mg/mL | Mean content ([6]; 25° C./60% RH, T = 3 months): 20.5 mg/mL | Rec./T = 0 ([6]; 25° C./60% RH, T = 3 months): 97.8% | Rec./theory (percentage of theoretical 20 mg/mL) ([6]; 25° C./60% RH, T = 3 months): 102.8% | LTX-315 concentration, Vial 1 ([6]; 25° C./60% RH, T = 6 months): 20.575 mg/mL | LTX-315 concentration, Vial 2 ([6]; 25° C./60% RH, T = 6 months): 20.215 mg/mL | Mean content ([6]; 25° C./60% RH, T = 6 months): 20.3 mg/mL | Rec./T = 0 ([6]; 25° C./60% RH, T = 6 months): 97.0% | Rec./theory (percentage of theoretical 20 mg/mL) ([6]; 25° C./60% RH, T = 6 months): 102.0% | LTX-315 concentration, Vial 1 ([6]; Initial (T = 0)): 21.068 mg/mL | LTX-315 concentration, Vial 2 ([6]; Initial (T = 0)): 20.978 mg/mL | Mean content ([6]; Initial (T = 0)): 21.0 mg/mL | Rec./theory (percentage of theoretical 20 mg/mL) ([6]; Initial (T = 0)): 105.1% | Change in LTX-315 concentration ([6]; 2-8° C., 24 months): very slight decrease | Concentration of LTX-315 versus T=0 ([6]; 25° C. with 60% relative humidity, six months): the same as the concentration at T=0
